Consider 68 molecules from patent publication US20040018971A1 (published 2004).

This experiment deals with T1, HLA-B*0702 (human).
T1 construct: also called B7 supertype prototype molecule
The experiment in a line: inhibition of 125I standard peptide binding to purified HLA.

B1: HER2/neu peptide, position 393, 11 amino acids (peptide)
peptide: QPEQLQVFETL
notes: also called Her2/neu.393
B1: the relative binding ratio was -0.0002 ratio to standard peptide.

B2: HER2/neu peptide, position 38, 9 amino acids (peptide)
peptide: SPETHLDML
notes: also called Her2/neu.38
On to B2, for which the relative binding ratio is 0.0005 ratio to standard peptide.

B3: HER2/neu peptide, position 1174, 8 amino acids (peptide)
peptide: SPGKNGVV
notes: also called Her2/neu.1174
Consider B3, for which the relative binding ratio was 0.023 ratio to standard peptide.

B4: HER2/neu peptide, position 944, 9 amino acids (peptide)
peptide: PPICTIDVY
notes: also called Her2/neu.944
With B4, the relative binding ratio was 0.0001 ratio to standard peptide.

B5: HER2/neu peptide, position 393, 8 amino acids (peptide)
peptide: QPEQLQVF
notes: also called Her2/neu.393
Regarding B5, the relative binding ratio is -0.0002 ratio to standard peptide.

B6: HER2/neu peptide, position 284, 10 amino acids (peptide)
peptide: NPEGRYTFGA
notes: also called Her2/neu.284
On to B6, for which the relative binding ratio is 0.0001 ratio to standard peptide.

B7: HER2/neu peptide, position 943, 10 amino acids (peptide)
peptide: QPPICTIDVY
notes: also called Her2/neu.943
B7: the relative binding ratio is 0.0001 ratio to standard peptide.

B8: HER2/neu peptide, position 568, 10 amino acids (peptide)
peptide: QPQNGSVTCF
notes: also called Her2/neu.568
As to B8, the relative binding ratio was 0.0004 ratio to standard peptide.

B9: HER2/neu peptide, position 943, 11 amino acids (peptide)
peptide: QPPICTIDVYM
notes: also called Her2/neu.943
Consider B9, for which the relative binding ratio is 0.002 ratio to standard peptide.

B10: HER2/neu peptide, position 760, 8 amino acids (peptide)
peptide: SPKANKEI
notes: also called Her2/neu.760
Take B10: the relative binding ratio was 0.058 ratio to standard peptide.

B11: HER2/neu peptide, position 1118, 10 amino acids (peptide)
peptide: VPLPSETDGY
notes: also called Her2/neu.1118
For the molecule B11, the relative binding ratio was 0.0001 ratio to standard peptide.

B12: HER2/neu peptide, position 1245, 9 amino acids (peptide)
peptide: NPEYLGLDV
notes: also called Her2/neu.1245
Turning to B12, the relative binding ratio is 0.0001 ratio to standard peptide.

B13: HER2/neu peptide, position 1240, 10 amino acids (peptide)
peptide: TPTAENPEYL
notes: also called Her2/neu.1240
For the molecule B13, the relative binding ratio was 0.0002 ratio to standard peptide.

B14: HER2/neu peptide, position 17, 9 amino acids (peptide)
peptide: PPGAASTQV
notes: also called Her2/neu.17
Consider B14, for which the relative binding ratio is 0.0001 ratio to standard peptide.

B15: HER2/neu peptide, position 158, 10 amino acids (peptide)
peptide: NPQLCYQDTI
notes: also called Her2/neu.158
On to B15, for which the relative binding ratio was 0.0001 ratio to standard peptide.

B16: HER2/neu peptide, position 196, 10 amino acids (peptide)
peptide: SPMCKGSRCW
notes: also called Her2/neu.196
For the molecule B16, the relative binding ratio is 0.0021 ratio to standard peptide.

B17: HER2/neu peptide, position 706, 10 amino acids (peptide)
peptide: MPNQAQMRIL
notes: T0001 prints N at residue 706; also called Her2/neu.706
With B17, the relative binding ratio is 0.049 ratio to standard peptide.

B18: HER2/neu peptide, position 1148, 10 amino acids (peptide)
peptide: QPPSPREGPL
notes: also called Her2/neu.1148
For B18, the relative binding ratio is 0.0014 ratio to standard peptide.

B19: HER2/neu peptide, position 779, 8 amino acids (peptide)
peptide: SPYVSRLL
notes: also called Her2/neu.779
Take B19: the relative binding ratio was 0.044 ratio to standard peptide.

B20: HER2/neu peptide, position 1214, 10 amino acids (peptide)
peptide: SPAFDNLYYW
notes: also called Her2/neu.1214
As to B20, the relative binding ratio is 0.0001 ratio to standard peptide.

B21: HER2/neu peptide, position 282, 10 amino acids (peptide)
peptide: MPNPEGRYTF
notes: also called Her2/neu.282
With B21, the relative binding ratio is 0.0001 ratio to standard peptide.

B22: HER2/neu peptide, position 1245, 11 amino acids (peptide)
peptide: NPEYLGLDVPV
notes: also called Her2/neu.1245
As for B22, the relative binding ratio was -0.0002 ratio to standard peptide.

B23: HER2/neu peptide, position 94, 8 amino acids (peptide)
peptide: VPLQRLRI
notes: also called Her2/neu.94
In the case of B23, the relative binding ratio was 0.002 ratio to standard peptide.

B24: HER2/neu peptide, position 884, 11 amino acids (peptide)
peptide: VPIKWMALESI
notes: also called Her2/neu.884
Regarding B24, the relative binding ratio was 0.0017 ratio to standard peptide.

B25: HER2/neu peptide, position 133, 10 amino acids (peptide)
peptide: SPGGLRELQL
notes: also called Her2/neu.133
As for B25, the relative binding ratio was 0.058 ratio to standard peptide.

B26: HER2/neu peptide, position 966, 11 amino acids (peptide)
peptide: RPRFRELVSEF
notes: also called Her2/neu.966
In the case of B26, the relative binding ratio was 1.3 ratio to standard peptide.

B27: HER2/neu peptide, position 944, 11 amino acids (peptide)
peptide: PPICTIDVYMI
notes: also called Her2/neu.944
For B27, the relative binding ratio was 0.0064 ratio to standard peptide.

B28: HER2/neu peptide, position 1233, 11 amino acids (peptide)
peptide: PPSTFKGTPTA
notes: also called Her2/neu.1233
For the molecule B28, the relative binding ratio is -0.0003 ratio to standard peptide.

B29: HER2/neu peptide, position 158, 11 amino acids (peptide)
peptide: NPQLCYQDTIL
notes: also called Her2/neu.158
Regarding B29, the relative binding ratio is -0.0002 ratio to standard peptide.

B30: HER2/neu peptide, position 1214, 9 amino acids (peptide)
peptide: SPAFDNLYY
notes: also called Her2/neu.1214
As to B30, the relative binding ratio was 0.0001 ratio to standard peptide.

B31: HER2/neu peptide, position 1206, 8 amino acids (peptide)
peptide: QPHPPPAF
notes: also called Her2/neu.1206
B31: the relative binding ratio was 0.0002 ratio to standard peptide.

B32: HER2/neu peptide, position 1209, 8 amino acids (peptide)
peptide: PPPAFSPA
notes: also called Her2/neu.1209
Regarding B32, the relative binding ratio was -0.0002 ratio to standard peptide.

B33: HER2/neu peptide, position 998, 8 amino acids (peptide)
peptide: SPLDSTFY
notes: also called Her2/neu.998
B33: the relative binding ratio was -0.0006 ratio to standard peptide.

B34: HER2/neu peptide, position 855, 10 amino acids (peptide)
peptide: SPNHVKITDF
notes: also called Her2/neu.855
Regarding B34, the relative binding ratio is 0.0016 ratio to standard peptide.

B35: HER2/neu peptide, position 38, 8 amino acids (peptide)
peptide: SPETHLDM
notes: also called Her2/neu.38
In the case of B35, the relative binding ratio is 0.0014 ratio to standard peptide.

B36: HER2/neu peptide, position 1136, 10 amino acids (peptide)
peptide: QPEYVNQPDV
notes: also called Her2/neu.1136
Take B36: the relative binding ratio was 0.0001 ratio to standard peptide.

B37: HER2/neu peptide, position 1149, 9 amino acids (peptide)
peptide: PPSPREGPL
notes: also called Her2/neu.1149
In the case of B37, the relative binding ratio is 0.0054 ratio to standard peptide.

B38: HER2/neu peptide, position 1214, 8 amino acids (peptide)
peptide: SPAFDNLY
notes: also called Her2/neu.1214
With B38, the relative binding ratio was -0.0002 ratio to standard peptide.

B39: HER2/neu peptide, position 966, 8 amino acids (peptide)
peptide: RPRFRELV
notes: also called Her2/neu.966
For the molecule B39, the relative binding ratio was 0.041 ratio to standard peptide.

B40: HER2/neu peptide, position 1118, 11 amino acids (peptide)
peptide: VPLPSETDGYV
notes: also called Her2/neu.1118
B40: the relative binding ratio was -0.0002 ratio to standard peptide.

B41: HER2/neu peptide, position 127, 11 amino acids (peptide)
peptide: TPVTGASPGGL
notes: also called Her2/neu.127
On to B41, for which the relative binding ratio is -0.0002 ratio to standard peptide.

B42: HER2/neu peptide, position 1073, 9 amino acids (peptide)
peptide: SPLAPSEGA
notes: also called Her2/neu.1073
Turning to B42, the relative binding ratio was 0.003 ratio to standard peptide.

B43: HER2/neu peptide, position 760, 9 amino acids (peptide)
peptide: SPKANKEIL
notes: also called Her2/neu.760
For B43, the relative binding ratio was 0.12 ratio to standard peptide.

B44: HER2/neu peptide, position 779, 10 amino acids (peptide)
peptide: SPYVSRLLGI
notes: also called Her2/neu.779
On to B44, for which the relative binding ratio was 0.1 ratio to standard peptide.

B45: HER2/neu peptide, position 1193, 11 amino acids (peptide)
peptide: NPEYLTPQGGA
notes: also called Her2/neu.1193
With B45, the relative binding ratio was -0.0003 ratio to standard peptide.

B46: HER2/neu peptide, position 488, 10 amino acids (peptide)
peptide: NPHQALLHTA
notes: also called Her2/neu.488
Consider B46, for which the relative binding ratio was 0.0005 ratio to standard peptide.

B47: HER2/neu peptide, position 1206, 11 amino acids (peptide)
peptide: QPHPPPAFSPA
notes: also called Her2/neu.1206
As to B47, the relative binding ratio was 0.0003 ratio to standard peptide.

B48: HER2/neu peptide, position 706, 9 amino acids (peptide)
peptide: MPNQAQMRI
notes: as for B17
Regarding B48, the relative binding ratio is 0.009 ratio to standard peptide.

B49: HER2/neu peptide, position 499, 11 amino acids (peptide)
peptide: RPEDECVGEGL
notes: also called Her2/neu.499
For the molecule B49, the relative binding ratio was -0.0002 ratio to standard peptide.

B50: HER2/neu peptide, position 1209, 9 amino acids (peptide)
peptide: PPPAFSPAF
notes: also called Her2/neu.1209
With B50, the relative binding ratio was 0.0002 ratio to standard peptide.

B51: HER2/neu peptide, position 133, 8 amino acids (peptide)
peptide: SPGGLREL
notes: also called Her2/neu.133
Take B51: the relative binding ratio was 0.055 ratio to standard peptide.

B52: HER2/neu peptide, position 944, 10 amino acids (peptide)
peptide: PPICTIDVYM
notes: also called Her2/neu.944
As to B52, the relative binding ratio was 0.0004 ratio to standard peptide.

B53: HER2/neu peptide, position 701, 10 amino acids (peptide)
peptide: TPSGAMPNQA
notes: T0001 prints N at residue 706; also called Her2/neu.701
B53: the relative binding ratio is 0.0001 ratio to standard peptide.

B54: HER2/neu peptide, position 801, 10 amino acids (peptide)
peptide: MPYGCLLDHV
notes: also called Her2/neu.801
B54: the relative binding ratio was 0.0085 ratio to standard peptide.

B55: HER2/neu peptide, position 1210, 11 amino acids (peptide)
peptide: PPAFSPAFDNL
notes: also called Her2/neu.1210
On to B55, for which the relative binding ratio was -0.0002 ratio to standard peptide.

B56: HER2/neu peptide, position 1174, 11 amino acids (peptide)
peptide: SPGKNGVVKDV
notes: also called Her2/neu.1174
Turning to B56, the relative binding ratio was -0.0002 ratio to standard peptide.

B57: HER2/neu peptide, position 884, 8 amino acids (peptide)
peptide: VPIKWMAL
notes: also called Her2/neu.884
Regarding B57, the relative binding ratio is 1.4 ratio to standard peptide.

B58: HER2/neu peptide, position 998, 11 amino acids (peptide)
peptide: SPLDSTFYRSL
notes: also called Her2/neu.998
For the molecule B58, the relative binding ratio was 0.064 ratio to standard peptide.

B59: HER2/neu peptide, position 1151, 9 amino acids (peptide)
peptide: SPREGPLPA
notes: also called Her2/neu.1151
Regarding B59, the relative binding ratio is 0.64 ratio to standard peptide.

B60: HER2/neu peptide, position 649, 9 amino acids (peptide)
peptide: SPLTSIISA
notes: also called Her2/neu.649
As for B60, the relative binding ratio was 0.015 ratio to standard peptide.

B61: HER2/neu peptide, position 943, 9 amino acids (peptide)
peptide: QPPICTIDV
notes: also called Her2/neu.943
As to B61, the relative binding ratio was 0.0001 ratio to standard peptide.

B62: HER2/neu peptide, position 1227, 11 amino acids (peptide)
peptide: PPERGAPPSTF
notes: also called Her2/neu.1227
Regarding B62, the relative binding ratio was -0.0003 ratio to standard peptide.

B63: HER2/neu peptide, position 1210, 8 amino acids (peptide)
peptide: PPAFSPAF
notes: also called Her2/neu.1210
As to B63, the relative binding ratio is -0.0002 ratio to standard peptide.

B64: HER2/neu peptide, position 649, 11 amino acids (peptide)
peptide: SPLTSIISAVV
notes: also called Her2/neu.649
For B64, the relative binding ratio is 0.025 ratio to standard peptide.

B65: HER2/neu peptide, position 284, 8 amino acids (peptide)
peptide: NPEGRYTF
notes: also called Her2/neu.284
Regarding B65, the relative binding ratio was -0.0002 ratio to standard peptide.

B66: HER2/neu peptide, position 1151, 10 amino acids (peptide)
peptide: SPREGPLPAA
notes: also called Her2/neu.1151
On to B66, for which the relative binding ratio was 0.46 ratio to standard peptide.

B67: HER2/neu peptide, position 649, 10 amino acids (peptide)
peptide: SPLTSIISAV
notes: also called Her2/neu.649
Regarding B67, the relative binding ratio was 0.09 ratio to standard peptide.

B68: HER2/neu peptide, position 944, 8 amino acids (peptide)
peptide: PPICTIDV
notes: also called Her2/neu.944
In the case of B68, the relative binding ratio was -0.0006 ratio to standard peptide.
